Columns and labels:
[1] = target: endogenous Atg16L1 (HEK293A) (UniProt Q676U5); assay: GFP-Trap, immunoblot quantification; conditions: parent: est. 0.49; read off a plot
[2] = target: FLAG-Atg16L1 E226R, Q8C0J2-3; assay: GFP-Trap co-immunoprecipitation from mixed lysates, immunoblot quantification; conditions: parent: est. 2.5; read off a plot
[3] = target: FLAG-Atg16L1 E226R E230R (ERER), Q8C0J2-3; assay: as above; conditions: parent: est. 2.5; read off a plot
[4] = target: FLAG-Atg16L1 E230R, Q8C0J2-3; assay: as above; conditions: parent: est. 2.5; read off a plot
FLAG-Atg16L1 E230R, Q8C0J2-3, sequence (Q8C0J2 other isoform, or with tags, fused parts or gaps E230R | E230R): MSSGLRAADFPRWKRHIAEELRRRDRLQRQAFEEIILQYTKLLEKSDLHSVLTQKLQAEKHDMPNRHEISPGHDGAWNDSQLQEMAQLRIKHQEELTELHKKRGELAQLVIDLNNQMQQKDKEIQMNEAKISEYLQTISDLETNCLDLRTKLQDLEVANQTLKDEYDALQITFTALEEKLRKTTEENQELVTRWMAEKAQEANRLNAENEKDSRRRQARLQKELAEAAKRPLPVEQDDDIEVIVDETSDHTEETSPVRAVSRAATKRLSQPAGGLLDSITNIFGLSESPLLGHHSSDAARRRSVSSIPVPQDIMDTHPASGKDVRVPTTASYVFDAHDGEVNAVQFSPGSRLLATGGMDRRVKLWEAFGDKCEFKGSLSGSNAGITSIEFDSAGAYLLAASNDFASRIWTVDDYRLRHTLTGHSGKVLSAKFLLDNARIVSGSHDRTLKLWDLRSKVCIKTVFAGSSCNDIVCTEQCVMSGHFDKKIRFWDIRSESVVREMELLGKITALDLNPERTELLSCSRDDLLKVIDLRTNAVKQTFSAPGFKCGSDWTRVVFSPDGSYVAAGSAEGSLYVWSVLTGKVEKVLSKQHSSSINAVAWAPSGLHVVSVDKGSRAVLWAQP

FLAG-Atg16L1 E226R, Q8C0J2-3, sequence (Q8C0J2 other isoform, or with tags, fused parts or gaps E226R | E226R): as the sequence (Q8C0J2 other isoform, or with tags, fused parts or gaps E230R | E230R) above, with E226R, R230E counted along it
FLAG-Atg16L1 E226R E230R (ERER), Q8C0J2-3, sequence (Q8C0J2 other isoform, or with tags, fused parts or gaps E226R | E230R | E226R E230R): as the sequence (Q8C0J2 other isoform, or with tags, fused parts or gaps E230R | E230R) above, with E226R counted along it
endogenous Atg16L1 (HEK293A), sequence (Q676U5 whole entry): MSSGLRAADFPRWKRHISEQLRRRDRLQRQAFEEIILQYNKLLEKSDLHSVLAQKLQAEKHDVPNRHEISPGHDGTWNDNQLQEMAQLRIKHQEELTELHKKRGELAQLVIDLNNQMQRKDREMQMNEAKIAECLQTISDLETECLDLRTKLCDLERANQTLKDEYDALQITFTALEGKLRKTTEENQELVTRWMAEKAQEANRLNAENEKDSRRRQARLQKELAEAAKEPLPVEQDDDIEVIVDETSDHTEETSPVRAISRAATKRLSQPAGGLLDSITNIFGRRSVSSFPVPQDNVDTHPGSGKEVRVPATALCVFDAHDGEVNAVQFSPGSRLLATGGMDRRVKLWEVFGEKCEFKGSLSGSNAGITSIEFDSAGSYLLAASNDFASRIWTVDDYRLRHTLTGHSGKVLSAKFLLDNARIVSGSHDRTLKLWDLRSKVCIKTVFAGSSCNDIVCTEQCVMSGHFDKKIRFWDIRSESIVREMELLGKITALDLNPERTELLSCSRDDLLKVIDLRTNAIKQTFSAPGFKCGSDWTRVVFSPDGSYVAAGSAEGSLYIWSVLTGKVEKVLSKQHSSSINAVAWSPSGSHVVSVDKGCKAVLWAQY

| Substance | response [2] | response [3] | response [4] | further results |
| --- | --- | --- | --- | --- |
| GFP-WIPI2b FRRG to FTTG |  |  |  | response [1]: 0.79 |
| m1; m3 WIPI2b:R108E; Atg16L1:E226R; Atg16L1:E230R |  | 0.13 |  |  |
| m1; m3 WIPI2b:R108E; Atg16L1:E230R |  |  | 0.87 |  |
| m1; m3 WIPI2b:R108E; WIPI2b:R125E; Atg16L1:E226R | 0.04 |  |  |  |
| m1; m3 WIPI2b:R125E; Atg16L1:E226R | 0.05 |  |  |  |
| m1; m3 WIPI2b:R125E; Atg16L1:E230R |  |  | 0.04 |  |

More lines, main results first:

| response [2] | response [3] | response [4] | Substance | further results |
| --- | --- | --- | --- | --- |
| 0.05 |  |  | m1; m3 WIPI2b:R108E; Atg16L1:E226R |  |
|  | 0.04 |  | m1; m3 WIPI2b:R108E; WIPI2b:R125E; Atg16L1:E226R; Atg16L1:E230R |  |
|  |  | 0.05 | m1; m3 WIPI2b:R108E; WIPI2b:R125E; Atg16L1:E230R |  |
|  | 0.23 |  | m1; m3 WIPI2b:R125E; Atg16L1:E226R; Atg16L1:E230R |  |
